Assay results as given in PMC5778138, “Interaction of the Morphogenic Protein RodZ with the Bacillus subtilis Min System” (Frontiers in Microbiology, 2017).

Target: T1, His-tagged cytosolic part of MinJ, fluorescently labeled (B. subtilis, labeled with the amine-reactive red fluorescent dye NT-647 NHS)
T1 chain: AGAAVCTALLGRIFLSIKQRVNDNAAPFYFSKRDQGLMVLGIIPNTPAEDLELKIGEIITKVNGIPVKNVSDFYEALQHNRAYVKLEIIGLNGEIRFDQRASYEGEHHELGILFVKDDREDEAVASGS
Assay: MST; NT-647-labeled His-cyt-MinJ at 34 μM, cyt-RodZ titrated from 6.7 nM to 221 μM in 16 capillaries; Monolith NT.115; the methods call the Kd preliminary
Settings: both partners purified

Kd: 5.1 ± 0.6 µM
B1: His-tagged cytosolic part of RodZ (domain or fragment)
chain: VTELGIRLKEAREEKAMSLDDLQAATKIQKRYLTALEEGNYDIIPGKFYVRAFIKQYAEAVGLDADQLFEEHKKDIPNTYHDDVSEKISGMNLQKEMPKPASKALE
